From patent US20030232325A1 (MOUNT SINAI SCHOOL OF MEDICINE OF NEW YORK UNIVERSITY, published 2003) come the findings set out here.

Assay [1] concerns the target VSV M protein (form used not stated; discussion of Example 9, data not shown) (vesicular stomatitis virus, UniProt P03519 1-229). The experiment in a line: far-western blot presumably; data not shown.
In assay [2] the target is T1, gst alone (glutathione-S-transferase expressed from pGEX-2TK) (UniProt P08515 1-218 = GST). The experiment in a line: far-western blot, 32P-labelled gst probe.
Assay [3] concerns the target T1, gst alone (glutathione-S-transferase …). Briefly: far-western blot, 32P-labelled gst probe on bacterial extract.

T1 sequence (P08515 whole entry): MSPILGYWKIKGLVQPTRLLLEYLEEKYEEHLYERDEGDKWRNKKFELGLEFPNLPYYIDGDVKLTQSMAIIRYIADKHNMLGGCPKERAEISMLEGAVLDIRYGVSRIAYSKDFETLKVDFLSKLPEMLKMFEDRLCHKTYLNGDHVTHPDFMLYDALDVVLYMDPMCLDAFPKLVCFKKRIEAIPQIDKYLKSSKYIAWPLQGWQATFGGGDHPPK

B1: WW domain from ESS 1 (other)
chain: TGLPTPWTVRYSKSKKREYFFNPETKHSQWEEPEG
notes: domain: WW
On to B1, for which the binding result in assay [1] was “no binding”.

B2: gstRabM69 (gst fused to amino acids 1-69 of the rabies virus M protein) (other)
chain: MNLLRKIVKNRRDEDTQKSSPASAPLDDDDLWLPPPEYVPLKELTGKKNMRNFCINGRVKVCSPNGYSF
As for B2, the binding result in assay [2] is listed as “no binding”.

B3: gstVSVM74WT (gst fused to the N-terminal 74 amino acids of VSV (Ind.) M protein, wild type PY motif) (other)
chain: MSSLKKILGLKGKGKKSKKLGIAPPPYEEDTSMEYAPSAPIDKSYFGVDEMDTYDPNQLRYEKFFFTVKMTVRS
Take B3: the binding result in assay [3] was “no binding”.

B4: gstRabM52WT (gst fused to amino acids 1-52, wild type, of the rabies virus M protein) (other)
chain: MNLLRKIVKNRRDEDTQKSSPASAPLDDDDLWLPPPEYVPLKELTGKKNMRN
B4: the binding result in assay [2] is recorded as “no binding”.

B5: gstRabM202 (gst fused to amino acids 1-202, full-length, of the rabies virus M protein) (other)
chain: MNLLRKIVKNRRDEDTQKSSPASAPLDDDDLWLPPPEYVPLKELTGKKNMRNFCINGRVKVCSPNGYSFRILRHILKSFDEIYSGNHRMIGLVKVVIGLALSGSPVPEGLNWVYKLRRTFIFQWADSRGPLEGEELEYSQEITWDDDTEFVGLQIRVIAKQCHIQGRVWCINMNPRACQLWSDMSLQTQRSEEDKDSSLLLE
B5: the binding result in assay [2] is “no binding”.
